Measured values as given in US20250243243A1, “DISRUPTION OF SONIC HEDGEHOG-SURF4 INTERACTION FOR CANCER TREATMENT” (The Hong Kong University of Science and Technology, priority 2022, published 2025).

Assays:
[1] = target: ShhN^1-198-HA (mouse) (UniProt Q62226); assay: anti-HA immunoprecipitation from HEK293T lysate, label-free quantitative mass spectrometry; ratio of the ShhN-HA group to the IGF2-HA group
[2] = target: IGF2-HA (human) (UniProt P01344); assay: anti-HA immunoprecipitation from HEK293T lysate, label-free quantitative mass spectrometry; 2 unique peptides; untransfected Control Group printed 247624.8556
[3] = target: ShhN^1-198-HA (mouse) (UniProt Q62226); assay: as above

ShhN^1-198-HA (mouse), sequence (Q62226 25-198): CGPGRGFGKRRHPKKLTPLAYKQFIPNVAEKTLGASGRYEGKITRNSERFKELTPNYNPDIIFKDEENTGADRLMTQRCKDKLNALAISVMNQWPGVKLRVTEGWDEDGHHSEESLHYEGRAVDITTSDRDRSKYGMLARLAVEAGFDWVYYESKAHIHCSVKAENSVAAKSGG

B1: CLINT1 (protein, human (HEK293T cells), UniProt Q14677 1-625, looked up)
single chain: MLNMWKVRELVDKATNVVMNYSEIESKVREATNDDPWGPSGQLMGEIAKATFMYEQFPELMNMLWSRMLKDNKKNWRRVYKSLLLLAYLIRNGSERVVTSAREHIYDLRSLENYHFVDEHGKDQGINIRQKVKELVEFAQDDDRLREERKKAKKNKDKYVGVSSDSVGGFRYSERYDPEPKSKWDEEWDKNKSAFPFSDKLGELSDKIGSTIDDTISKFRRKDREDSPERCSDSDEEKKARRGRSPKGEFKDEEETVTTKHIHITQATETTTTRHKRTANPSKTIDLGAAAHYTGDKASPDQNASTHTPQSSVKTSVPSSKSSGDLVDLFDGTSQSTGGSADLFGGFADFGSAAASGSFPSQVTATSGNGDFGDWSAFNQAPSGPVASSGEFFGSASQPAVELVSGSQSALGPPPAASNSSDLFDLMGSSQATMTSSQSMNFSMMSTNTVGLGLPMSRSQNTDMVQKSVSKTLPSTWSDPSVNISLDNLLPGMQPSKPQQPSLNTMIQQQNMQQPMNVMTQSFGAVNLSSPSNMLPVRPQTNALIGGPMPMSMPNVMTGTMGMAPLGNTPMMNQSMMGMNMNIGMSAAGMGLTGTMGMGMPNIAMTSGTVQPKQDAFANFANFSK
Abundance Ratio ShhN:IGF2 [1]: 3.5 | abundance in The IGF2 Group [2]: 78500 | abundance in The ShhN Group [3]: 275000
